Laboratory results published in IntAct's records for PubMed 29691401.

B1: "Lethal(3)malignant brain tumor-like protein 3" (Homo sapiens), Q96JM7 (parent)
chain: MTESASSTSGQEFDVFSVMDWKDGVGTLPGSDLKFRVNEFGALEVITDENEMENVKKATATTTWMVPTAQEAPTSPPSSRPVFPPAYWTSPPGCPTVFSEKTGMPFRLKDPVKVEGLQFCENCCQYGNVDECLSGGNYCSQNCARHIKDKDQKEERDVEEDNEEEDPKCSRKKKPKLSLKADTKEDGEERDDEMENKQDVRILRGSQRARRKRRGDSAVLKQGLPPKGKKAWCWASYLEEEKAVAVPAKLFKEHQSFPYNKNGFKVGMKLEGVDPEHQSVYCVLTVAEVCGYRIKLHFDGYSDCYDFWVNADALDIHPVGWCEKTGHKLHPPKGYKEEEFNWQTYLKTCKAQAAPKSLFENQNITVIPSGFRVGMKLEAVDKKNPSFICVATVTDMVDNRFLVHFDNWDESYDYWCEASSPHIHPVGWCKEHRRTLITPPGYPNVKHFSWDKYLEETNSLPAPARAFKVKPPHGFQKKMKLEVVDKRNPMFIRVATVADTDDHRVKVHFDGWNNCYDYWIDADSPDIHPVGWCSKTGHPLQPPLSPLELMEASEHGGCSTPGCKGIGHFKRARHLGPHSAANCPYSEINLNKDRIFPDRLSGEMPPASPSFPRNKRTDANESSSSPEIRDQHADDVKEDFEERTESEMRTSHEARGAREEPTVQQAQRRSAVFLSFKSPIPCLPLRWEQQSKLLPTVAGIPASKVSKWSTDEVSEFIQSLPGCEEHGKVFKDEQIDGEAFLLMTQTDIVKIMSIKLGPALKIFNSILMFKAAEKNSHNEL

Variants of: B1
Conditions: with dnmt1_human DNMT1, P26358
Chain of dnmt1_human DNMT1, P26358 (P26358 whole entry): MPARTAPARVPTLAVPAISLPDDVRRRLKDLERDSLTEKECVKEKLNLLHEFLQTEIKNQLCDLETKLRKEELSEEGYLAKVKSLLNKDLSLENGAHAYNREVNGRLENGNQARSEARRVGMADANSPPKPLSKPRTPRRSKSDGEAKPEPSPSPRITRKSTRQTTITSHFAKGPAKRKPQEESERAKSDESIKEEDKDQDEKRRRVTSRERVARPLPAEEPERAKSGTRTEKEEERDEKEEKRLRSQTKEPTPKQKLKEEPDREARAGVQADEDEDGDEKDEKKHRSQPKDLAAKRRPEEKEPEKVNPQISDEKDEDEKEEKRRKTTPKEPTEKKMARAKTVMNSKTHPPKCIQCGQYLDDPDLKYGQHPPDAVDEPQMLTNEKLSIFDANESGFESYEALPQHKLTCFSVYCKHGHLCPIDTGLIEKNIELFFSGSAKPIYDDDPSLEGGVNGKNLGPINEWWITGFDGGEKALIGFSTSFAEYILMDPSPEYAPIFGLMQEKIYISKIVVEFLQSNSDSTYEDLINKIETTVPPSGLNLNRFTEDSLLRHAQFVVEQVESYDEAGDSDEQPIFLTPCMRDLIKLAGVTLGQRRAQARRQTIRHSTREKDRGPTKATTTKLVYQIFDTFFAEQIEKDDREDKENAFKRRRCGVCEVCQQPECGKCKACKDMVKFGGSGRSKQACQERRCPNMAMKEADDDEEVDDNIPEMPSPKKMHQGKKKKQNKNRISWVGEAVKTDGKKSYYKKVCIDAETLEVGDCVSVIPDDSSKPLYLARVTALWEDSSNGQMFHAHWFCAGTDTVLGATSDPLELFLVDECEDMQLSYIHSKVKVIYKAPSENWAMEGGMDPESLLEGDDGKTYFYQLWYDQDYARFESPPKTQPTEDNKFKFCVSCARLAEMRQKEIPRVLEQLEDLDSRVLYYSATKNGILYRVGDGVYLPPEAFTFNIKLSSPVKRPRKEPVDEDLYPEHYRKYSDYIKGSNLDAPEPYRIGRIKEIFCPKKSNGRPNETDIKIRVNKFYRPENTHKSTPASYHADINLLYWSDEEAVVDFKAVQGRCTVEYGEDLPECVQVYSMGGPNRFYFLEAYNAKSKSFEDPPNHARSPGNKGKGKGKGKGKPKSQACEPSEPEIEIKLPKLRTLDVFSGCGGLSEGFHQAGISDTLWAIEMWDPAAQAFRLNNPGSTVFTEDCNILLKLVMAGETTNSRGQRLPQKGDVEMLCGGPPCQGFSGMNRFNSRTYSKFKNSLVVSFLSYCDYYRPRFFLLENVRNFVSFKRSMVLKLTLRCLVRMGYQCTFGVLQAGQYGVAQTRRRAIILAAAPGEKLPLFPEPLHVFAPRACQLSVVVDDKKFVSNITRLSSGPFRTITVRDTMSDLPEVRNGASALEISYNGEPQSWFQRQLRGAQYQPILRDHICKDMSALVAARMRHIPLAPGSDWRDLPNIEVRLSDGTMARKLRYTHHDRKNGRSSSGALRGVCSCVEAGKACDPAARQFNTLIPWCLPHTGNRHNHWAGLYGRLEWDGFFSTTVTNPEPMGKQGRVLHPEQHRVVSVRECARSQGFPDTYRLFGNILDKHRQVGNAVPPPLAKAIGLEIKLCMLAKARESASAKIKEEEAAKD

| Variant | effect of a mutation on the interaction |
| --- | --- |
| D381N | disrupting interaction strength |

Variants of: B1
Conditions: with dnmt1_human DNMT1, P26358
Remark: another data set of the same source

| Variant | effect of a mutation on the interaction |
| --- | --- |
| D381N | decreasing interaction strength |
